Measured values taken from US20180064827.

Tests used:
Experiment in all cases: cell_activity
ZFN 63194 (synthetic) = conditions: pair with 63195, Hepa1-6, 40 ug/mL
ZFN 63236 (synthetic) = conditions: pair with 63238, Hepa1-6, 40 ug/mL
ZFN 60287 (synthetic) = conditions: pair with 60289, K562
ZFN 63342 (synthetic) = conditions: pair with 63341, Hepa1-6, 40 ug/mL
ZFN 63238 (synthetic) = conditions: pair with 63236, Hepa1-6, 40 ug/mL
ZFN 63374 (synthetic) = conditions: pair with 63375, Hepa1-6, 40 ug/mL
ZFN 63410 (synthetic) = conditions: pair with 63411, Hepa1-6, 40 ug/mL
ZFN 63375 (synthetic) = conditions: pair with 63374, Hepa1-6, 40 ug/mL
ZFN 63411 (synthetic) = conditions: pair with 63410, Hepa1-6, 40 ug/mL
ZFN 63341 (synthetic) = conditions: pair with 63342, Hepa1-6, 40 ug/mL
ZFN 63195 (synthetic) = conditions: pair with 63194, Hepa1-6, 40 ug/mL

Which activity (ZFN 63194 (synthetic)) does the source give for “AAGGACTTGATATGAGAGGGTCCAACTT (double strand) [mouse KLKB1 63194 site]” here?
Its activity is 89.8 % indel.

“CCGCTGAGTTCACAGGTTGCCCCATGGA (double strand) [mouse KLKB1 63236 site]” was tested. Which activity (ZFN 63236 (synthetic)) did it give?
Its activity is 92.5 % indel.

“CGGAGCTCACCCTGGCCGAGTTGAGGCA (double strand) [human PCSK9 60287 site]” was tested. Which activity (ZFN 60287 (synthetic)) did it give?
The activity was 73.1 % indel.

“CTGCTCCTTGCACGAAGGTCACATTCAG (double strand) [mouse KLKB1 63342 site]” was tested. Which activity (ZFN 63342 (synthetic)) did it give?
Its activity is 96.8 % indel.

How did the activity (ZFN 63238 (synthetic)) turn out when “GCAGAGTGCTGGAAAATATCCATGGGGC (double strand) [mouse KLKB1 63238 site]” was run?
The activity was 92.5 % indel.

Which activity (ZFN 63374 (synthetic)) does the source give for “GGGAGCCATCTGTGGATAACCTTAAGGA (double strand) [mouse KLKB1 63374 site]” here?
Its activity is 93.7 % indel.

Which activity (ZFN 63410 (synthetic)) does the source give for “TCTTTAGGGGAGTGGCCATGGCAGGTCA (double strand) [mouse KLKB1 63410 site]” here?
Its activity is 84.7 % indel.

For “TGCATGCCATAGGTGATCCTAGTTGGGG (double strand) [mouse KLKB1 63375 site]”, which activity (ZFN 63375 (synthetic)) is on record?
Its activity is 93.7 % indel.

“TTCACTTGCAGGCTGACCTGCCATGGCC (double strand) [mouse KLKB1 63411 site]” was tested. Which activity (ZFN 63411 (synthetic)) did it give?
The activity was 84.7 % indel.

How did the activity (ZFN 63341 (synthetic)) turn out when “TTGACTTTGAAGGGGAAGAACTGAATGT (double strand) [mouse KLKB1 63341 site]” was run?
The activity was 96.8 % indel.

Which activity (ZFN 63195 (synthetic)) does the source give for “TTGTCGGTCTTAGAGATATTAAAGTTGG (double strand) [mouse KLKB1 63195 site]” here?
The activity was 89.8 % indel.
